{
  "source": "paper PMC7343536",
  "about": "(Cell, 2017)",
  "key": {"[1]": {"target": "T1, Ssb2 (purified recombinant) (S. cerevisiae, UniProt P40150 1-613)", "T1 sequence (P40150 whole entry)": "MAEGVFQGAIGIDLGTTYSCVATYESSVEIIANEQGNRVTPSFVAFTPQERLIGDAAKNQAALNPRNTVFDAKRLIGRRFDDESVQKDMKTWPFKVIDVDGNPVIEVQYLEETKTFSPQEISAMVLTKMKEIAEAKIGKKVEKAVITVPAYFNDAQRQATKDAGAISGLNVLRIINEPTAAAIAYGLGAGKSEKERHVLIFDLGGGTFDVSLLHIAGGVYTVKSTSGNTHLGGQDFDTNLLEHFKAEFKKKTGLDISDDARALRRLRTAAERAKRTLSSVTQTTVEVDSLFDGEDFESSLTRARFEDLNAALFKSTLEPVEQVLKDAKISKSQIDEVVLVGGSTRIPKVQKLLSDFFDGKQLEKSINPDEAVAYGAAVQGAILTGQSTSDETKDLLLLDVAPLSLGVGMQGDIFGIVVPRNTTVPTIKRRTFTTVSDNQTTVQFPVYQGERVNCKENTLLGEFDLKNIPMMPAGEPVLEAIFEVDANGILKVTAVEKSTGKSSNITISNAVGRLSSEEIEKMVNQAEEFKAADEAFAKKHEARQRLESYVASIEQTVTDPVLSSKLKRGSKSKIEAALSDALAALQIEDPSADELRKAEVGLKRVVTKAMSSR", "test": "stopped-flow fluorescence, peptide release"}, "[2]": {"target": "T1, Ssb2 (purified recombinant)", "test": "stopped-flow fluorescence, peptide release", "remark": "listed apart in the source"}},
  "note": "Read-outs that look alike come from different tables or passages of the source. No end group written: not given here.",
  "data": [
    {"binder": "QRKLFFNLRKTKQC (not fully specified (residue 14); also: labeled with IAANS, site not given here)", "note": "[IAANS labeled peptide substrate σ32-Q132-Q144-C]", "values": [
      {"measurement": "half-life of the complex", "setting": "[1]", "value": "7.7 ± 6.7", "unit": "min"},
      {"measurement": "half-life of the complex", "setting": "[2]", "value": "3.9 ± 0.2", "unit": "h"}
    ]}
  ]
}
